Blank lines part the entries; values can stand above or below the binder they belong to.
What was measured:
[1] = biological target: T1, human TNFR1-Fc fusion protein (human, UniProt P19438 29-211); assay: ELISA, human TNFR1-Fc
T1 construct: range 29-211; Made in stably transfected HEK293 cells; coated on ELISA plates or immobilised on QCM chips; also called huTNFR1-Fc; human TNFR-Fc; not shown: Fc part from vector pSecTagL1-Fc
T1 sequence (looked up): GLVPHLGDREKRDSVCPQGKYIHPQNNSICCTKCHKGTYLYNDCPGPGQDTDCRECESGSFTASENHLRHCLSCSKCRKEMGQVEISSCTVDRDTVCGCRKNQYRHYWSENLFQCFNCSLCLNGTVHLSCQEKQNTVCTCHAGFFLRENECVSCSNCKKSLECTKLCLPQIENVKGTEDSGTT

[2] = biological target: T2, human TNFR1 on cells (HT1080, HeLa, Kym-1) (human, UniProt P19438 30-455); assay: cell-based or functional assay
T2 sequence (looked up): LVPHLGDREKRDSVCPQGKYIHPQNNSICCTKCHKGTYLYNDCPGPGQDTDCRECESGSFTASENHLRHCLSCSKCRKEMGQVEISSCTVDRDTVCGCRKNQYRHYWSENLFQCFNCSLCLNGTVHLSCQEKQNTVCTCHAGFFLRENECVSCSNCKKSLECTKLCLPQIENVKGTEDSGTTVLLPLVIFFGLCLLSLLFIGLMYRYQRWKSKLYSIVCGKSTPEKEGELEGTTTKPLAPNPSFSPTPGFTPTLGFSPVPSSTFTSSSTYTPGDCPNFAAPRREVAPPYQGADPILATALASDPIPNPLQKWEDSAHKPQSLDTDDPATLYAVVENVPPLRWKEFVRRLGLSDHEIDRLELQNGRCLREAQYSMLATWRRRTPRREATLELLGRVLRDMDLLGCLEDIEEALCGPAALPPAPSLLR

[3] = biological target: T1, human TNFR1-Fc fusion protein; assay: QCM
[4] = biological target: T1, human TNFR1-Fc fusion protein; assay: QCM, soluble scFv, moderate receptor density
Method: (§1) Real-time binding dynamics in protein-protein interactions were determined by quartz crystal microbalance measurements (A-100 C-Fast or Cell-200 C-Fast, Attana, Stockholm, Sweden). One of the binding partners (ligand, e.g. TNFR1-Fc) was chemically immobilized on a carboxyl sensor chip according to the manufacturer's protocol at different densities (nearly 200 Hz in the case of saturating conditions to confirm previously published results and 50-100 Hz, in particular at about 50 Hz, to establish conditions of lower receptor density, better resembling the situation on the cellular surface). Binding experiments were performed with samples (analyte) diluted in PBST (PBS, 0.1% Tween 20) at pH 7.4 with a flow rate of 25 µl/min at 37° C. The chip was regenerated with 25 µl 5 mM NaOH or 20 mM glycine, pH 2.0. Every third measurement, an injection of running buffer was measured which was subtracted from the binding curve. Data were collected using the software provided by Attana for the particular device and analyzed by Attaché Office Evaluation software (Attana, Stockholm, Sweden) and TraceDrawe (ridgview instruments, Vange, Sweden).

[5] = biological target: T1, human TNFR1-Fc fusion protein; assay: QCM, human TNFR1-Fc immobilised
Method: as §1

[6] = biological target: T1, human TNFR1-Fc fusion protein; assay: QCM, human TNFR1-Fc, moderate receptor density (86 Hz), koff1
Method: as §1

[7] = biological target: T3, human TNFR2-Fc fusion protein (human, UniProt P20333 23-257); assay: ELISA on coated receptor-Fc fusion proteins, one antibody concentration (not given on the sheet)
T3 construct: whole entry named; also called huTNFR2
T3 sequence (looked up): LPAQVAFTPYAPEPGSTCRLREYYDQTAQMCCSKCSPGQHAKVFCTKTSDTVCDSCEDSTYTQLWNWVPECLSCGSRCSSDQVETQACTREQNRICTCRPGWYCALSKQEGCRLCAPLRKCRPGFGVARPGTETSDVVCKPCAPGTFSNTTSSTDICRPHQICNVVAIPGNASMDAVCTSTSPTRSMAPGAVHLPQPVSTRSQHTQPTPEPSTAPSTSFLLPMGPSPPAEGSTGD
Method: (§2) FIG. 12. Species selectivity of scFv13.7 derivatives. […] Presented are mean and SD of two individual experiments.
(§3) Microtiter plates were coated with 100 µl of the indicated protein (1 µg/ml in PBS, see Table 3.3) and incubated at 4° C. over night. The residual binding sites were blocked with 2% MPBS (skim milk in PBS, 200 µl per well) at room temperature for 2 hours and subsequently washed twice with PBS. 100 µl of the samples diluted in 2% MPBS were incubated at room temperature for 1 hour prior to the last incubation step with 100 µl of the HRP conjugated detection antibodies in 2% MPBS. In the case of competition experiments, both analyzed protein samples were prepared individually (either titrated or diluted to a single concentration) and mixed before they were applied to the plate. Bound protein was detected with 100 µl TMB substrate solution, the HRP-reaction was stopped by the addition of 50 µl 1 M H2SO4 and the absorption at the wavelength of 450 nm was measured using the Infinite microtiter plate reader (TECAN, Maennedorf, Switzerland). Between each incubation step and in advance of the detection, the plates were washed three times with PBST and twice with PBS.

[8] = biological target: T4, mouse TNFR2-Fc fusion protein (mouse, UniProt P25119 23-258); assay: as above
T4 construct: range 23-258; not shown: Fc part from vector pSecTagL1-Fc
T4 sequence (looked up): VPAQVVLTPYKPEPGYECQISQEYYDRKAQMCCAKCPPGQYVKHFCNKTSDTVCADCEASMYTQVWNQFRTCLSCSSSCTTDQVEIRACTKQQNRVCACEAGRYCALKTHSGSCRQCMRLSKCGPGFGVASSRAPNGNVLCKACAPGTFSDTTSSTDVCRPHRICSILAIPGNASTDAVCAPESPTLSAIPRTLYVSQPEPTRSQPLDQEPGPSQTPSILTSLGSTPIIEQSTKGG
Method: as §2, §3

[9] = biological target: T5, mouse TNFR1-Fc fusion protein (mouse, UniProt P25118 30-212); assay: as above
T5 construct: range 30-212; also called moR1; not shown: Fc part from vector pSecTagL1-Fc
T5 sequence (looked up): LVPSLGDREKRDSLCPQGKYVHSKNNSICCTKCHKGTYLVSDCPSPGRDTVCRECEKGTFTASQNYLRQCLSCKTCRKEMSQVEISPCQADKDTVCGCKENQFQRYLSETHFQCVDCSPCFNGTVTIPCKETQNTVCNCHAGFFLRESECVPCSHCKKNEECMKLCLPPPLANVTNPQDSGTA
Method: as §2, §3

[10] = biological target: T1, human TNFR1-Fc fusion protein; assay: ELISA on coated huTNFR1-Fc, antibody titrated, signal as Binding [%]
Method: FIG. 13. […] Increasing concentrations were tested for their binding to huTNFR1-Fc in ELISA (n=3, mean±SD).
as §3

[11] = biological target: T1, human TNFR1-Fc fusion protein; assay: QCM, human TNFR1-Fc, moderate receptor density (86 Hz), KD1
Method: as §1

[12] = biological target: T1, human TNFR1-Fc fusion protein; assay: QCM, human TNFR1-Fc, moderate receptor density (86 Hz), kon1
Method: as §1

[13] = biological target: T2, human TNFR1 on cells (HT1080, HeLa, …); assay: cell-based or functional assay; remark: listed apart in the source
[14] = biological target: T1, human TNFR1-Fc fusion protein; assay: ELISA, human TNFR1-Fc; remark: listed apart in the source
[15] = biological target: T2, human TNFR1 on cells (HT1080, HeLa, …); assay: cell-based or functional assay; remark: listed apart in the source
[16] = biological target: T1, human TNFR1-Fc fusion protein; assay: standard ELISA, human TNFR1-Fc
Method: (§4) FIG. 1. […] Applied were triplicates of five concentrations between 3.9 nM and 62.5 nM.
as §3

[17] = biological target: T1, human TNFR1-Fc fusion protein; assay: QCM, human TNFR1-Fc immobilised, high receptor density (195 Hz)
Method: as §4, §1

[18] = biological target: T1, human TNFR1-Fc fusion protein; assay: QCM, human TNFR1-Fc immobilised, low receptor density (48 Hz)
Method: as §1

[19] = biological target: T1, human TNFR1-Fc fusion protein; assay: ELISA, human TNFR1-Fc; remark: listed apart in the source
[20] = biological target: T1, human TNFR1-Fc fusion protein; assay: phage ELISA on human TNFR1
[21] = biological target: T2, human TNFR1 on cells (HT1080, HeLa, …); assay: cell-based or functional assay; remark: listed apart in the source

B1: scFvIG11 (scFv, V domains shown)
VH: QVQLVQSGAEVKKPGSSVKVSCKASGYTFTDFYINWVRQAPGQGLEWIGEIVPTQGEAKYNDKFKARVTITADKSTSTAYMELSSLRSEDTAVYYCARWDFLDYWGQGTTVTVSS
VL: DIVMTQSPLSLPVTPGEPASISCRSSQSLLHSNGNTYLHWYLQKPGQSPQLLIYTVSNRFSGVPDRFSGSGSGTDFTLKISRVEAEDVGVYYCSQSTHVPYTFGGGTKVEIK
EC50 [1]: 2.6 nM
IC50 (nM), approximated; inhibition of TNF (0.1 nM) induced IL-8 release [2]: ~300 nM
fold KD compared with scFvIZI06.1 [3]: 2 fold
fold reduced koff compared with scFvIZI06.1 [3]: ~3 fold
koff [3]: 0.00026 s⁻¹
relative koff (compared with scFvIZI06.1) [4]: 0.31 relative to scFvIZI06.1
Kd [5]: 24.9 nM
koff [5]: 0.0036 s⁻¹
kon [5]: 150000 M⁻¹ s⁻¹

B2: FabATROSAB (Fab, V domains shown)
VH: QVQLVQSGAEVKKPGSSVKVSCKASGYTFTDFYINWVRQAPGQGLEWIGEIYPYSGHAYYNEKFKARVTITADKSTSTAYMELSSLRSEDTAVYYCARWDFLDYWGQGTTVTVSS
VL: DIVMTQSPLSLPVTPGEPASISCRSSQSLLHSNGNTYLHWYLQKPGQSPQLLIYTVSNRFSGVPDRFSGSGSGTDFTLKISRVEAEDVGVYYCSQSTHVPYTFGGGTKVEIKR
notes: Fab of ATROSAB; also called Fab fragment of ATROSAB; ATROSAB Fab
koff [6]: 0.015 s⁻¹
binding result [7]: no binding
binding result [8]: no binding
binding result [9]: no binding
EC50 (read off the curve) [10]: ~10 nM
Kd [11]: 30 nM
kon [12]: 501000 M⁻¹ s⁻¹
IC50, Cytotox (nM); inhibition of Kym-1 cell death by 0.01 nM TNF [13]: 37 nM
IC50, IL-6 (nM); inhibition of the response of HeLa cells to 0.1 nM TNF [13]: 145 nM
IC50, IL-8 (nM); inhibition of the response of HT1080 cells to 0.1 nM TNF [13]: 151 nM
IL-6 release (pg/ml), HeLa cells [13]: 179 pg/mL
IL-8 release (pg/ml), HT1080 cells [13]: 128 pg/mL
fold weaker binding (higher EC50) compared with Fab13.7 [14]: 8.7 fold

B3: H398 (antibody, V domains shown)
VH: QVQLQESGAELARPGASVKLSCKASGYTFTDFYINWVKQRTGQGLEWIGEIYPYSGHAYYNEKFKAKATLTADKSSSTAFMQLNSLTSEDSAVYFCVRWDFLDYWGQGTTLTVSS
VL: DIVMTQSPLSLPVSLGDQASISCRSSQSLLHSNGNTYLHWYVQKPGQSPKLLIYTVSNRFSGVPDRFSGSGSGTDFTLKISRVEAEDLGVYFCSQSTHVPYTFGGGTKLEIK
IC50, LT [nM] (inhibition of IL-8 release from HT1080 cells induced by LTα) [15]: 0.65 nM
IC50, TNF [nM] (inhibition of IL-8 release from HT1080 cells induced by 0.1 nM TNF) [15]: 4.1 nM
EC50 [16]: 0.15 nM
Kd [17]: 0.23 nM
Kd [18]: 1.6 nM
koff [18]: 0.00062 s⁻¹

Results, then the binder that gave them:

EC50 [19]: 3.07 nM
EC50 [1]: 3.8 nM
IC50 (nM), approximated; inhibition of TNF (0.1 nM) induced IL-8 release [2]: ~200 nM
relative EC50 (compared with scFvIZI06.1) [20]: 1 relative to scFvIZI06.1
IC50 (nM), inhibition of TNF-induced IL-8 release from HT1080 cells [21]: 932 nM
koff [3]: 0.00076 s⁻¹
relative koff (compared with scFvIZI06.1) [4]: 1 relative to scFvIZI06.1
Kd [5]: 28.9 nM
koff [5]: 0.014 s⁻¹
kon [5]: 500000 M⁻¹ s⁻¹
B4: scFvIZI06.1 (scFv, V domains shown)
VH: QVQLVQSGAEVKKPGSSVKVSCKASGYTFTDFYINWVRQAPGQGLEWIGEIYPYSGHAYYNEKFKARVTITADKSTSTAYMELSSLRSEDTAVYYCARWDFLDYWGQGTTVTVSS
VL: DIVMTQSPLSLPVTPGEPASISCRSSQSLLHSNGNTYLHWYLQKPGQSPQLLIYTVSNRFSGVPDRFSGSGSGTDFTLKISRVEAEDVGVYYCSQSTHVPYTFGGGTKVEIK
notes: Made in the periplasm of E. coli TG1; also called ATROSAB scFv

EC50 [19]: 1.14 nM
EC50 [1]: 2 nM
Improved (factor of EC50 regarding scFvIG11) [1]: 1.3 fold
IC50 (nM), approximated; inhibition of TNF (0.1 nM) induced IL-8 release [2]: ~45 nM
Improved (factor of IC50 regarding scFvIG11) [2]: ~6.7 fold
relative EC50 (compared with scFvIZI06.1) [20]: 0.017 relative to scFvIZI06.1
IC50 (nM), inhibition of TNF-induced IL-8 release from HT1080 cells [21]: 309 nM
relative koff (compared with scFvIZI06.1) [4]: 0.25 relative to scFvIZI06.1
Improved (factor of KD regarding scFvIG11) [5]: 4.1 fold
Improved (factor of koff regarding scFvIG11) [5]: 2 fold
Improved (factor of kon regarding scFvIG11) [5]: 2.1 fold
B5: scFvT12B (scFv, V domains shown)
VH: HVQLVQSGAEVKKPGSSVKVSCKASGYTFTDFYINWVRQAPGQGLEWIGEIVPSQGEAKYNDKFKARVTITADKSTSTAYMELSSLRSEDTAVYYCARWDFLDYWGQGTTVTVSS
VL: DIVMTQSPLSLPVTPGEPASISCRSSQSLLHSNGNTYLHWYLQKPGQSPQLLIYTVSNRFSGVPDRFSGSGSGTDFTLKISRVEAEDVGVYYCSQGTHVPYTFGGGTKVEIK

From US10689452 (UNIVERSIT T STUTTGART, dated 2020)
